The values below come from the supplement of paper PMC12042874.

± gives the uncertainty stated by the source.

A short description of this data set: amyloid nucleation score (Sup35N fusion, yeast selection) (log enrichment); library NNK3; higher = more nucleation; inactive = no reads after selection. Put shortly: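 The nucleation score is the DiMSum log enrichment of output over input reads, centred on the mode score of non-aggregating sequences. Only sequences with 100 or more input reads were scored, using Illumina sequencing of input and output plasmid inserts. Psi-negative yeast expressing Sup35N fused to peptides of 20 random codons were induced 24 hours with 100 μM copper sulfate and grown 7 days at 30°C on medium lacking adenine and uracil.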

Turning to YDCVGDGWRPWLRPEDRSHV, the amyloid nucleation score entry was “inactive”.
Regarding YMVMFAPSFSWRVSVQDKGN, the amyloid nucleation score stood at 3.08 ± 0.063.
Turning to TEYFWGNYRKLCCFWWWLGR, the amyloid nucleation score entry was “inactive”.
Consider WYSTEM, for which the amyloid nucleation score entry is “inactive”.
The entry for WRRGFVNSRGYNLRFWGHYF is “inactive”; for LMFSMRTDRSMCGKDPLKRA it is “inactive”.
Regarding CALCRYC, the amyloid nucleation score entry was “inactive”.
As for LRRFWDRIPCFCLFHRFSFY, the amyloid nucleation score result is “inactive”.
With RMMNKAADNVMNYNCVCCKS the entry was “inactive”; with QSQWFGIVFMLNIMRSRDFR, 0.645 ± 0.12.
Regarding SIGWSMFDNSMVREIRTRTC, the amyloid nucleation score entry was “inactive”.
The figure for VYHTYVVLMGGHLPTSLGVT is 1.8 ± 0.078.
Take ACAATYLIADAFYELSGIGL: the amyloid nucleation score entry was “inactive”.
On to MSSACGWEEVIGCLEVMRIG, for which the amyloid nucleation score result was “inactive”.
The entry for SFSKNVVDL is “inactive”; for GAFCSND it is “inactive”; for NYDIILMLGWSVTFKLKVRF it is -0.36 ± 1.1.
The entry for SRCWGDILPLNIQYLMR is “inactive”; for MTRVYLMNFVLQLASTSQDS it is 2.54 ± 0.065; for LCVLPMSSTRGPHNICSTLL it is “inactive”.
Turning to KPSFDPFKN, the amyloid nucleation score result was “inactive”.
Turning to IKLHGQAHLIMSTLLPYMHK, the amyloid nucleation score entry is “inactive”.
With DYVWADLFCWASGSYLDGEC, the amyloid nucleation score entry is “inactive”.
For the substance SSRTCK, the amyloid nucleation score entry is “inactive”.
For the substance QWTQFIELLCYCYG, the amyloid nucleation score is 1.87 ± 0.11.
For RLPSREIVHCVQNSGRNPVG, the amyloid nucleation score was found to be 0.079 ± 0.35.
Regarding NGRNSRQTVIRIVSRWVVNH, the amyloid nucleation score result is “inactive”.
Take NLCQSAGRFCWG: the amyloid nucleation score entry is “inactive”.
The figure for HTYLLLRDNLLFTVIHTPRN is 2.02 ± 0.075.
GRKDLKYIQSGDMQFQSSKW showed an amyloid nucleation score of 0.138 ± 1.
The entry for AWSWLRANSRTQFWSRGLKP is “inactive”; for YSVNSTLLLYVSKYEFIPCV it is 0.169 ± 0.29; for VDNHAFKAFKHLGSSLMADR it is “inactive”.
In turn, LCATFMNYRVKIWSQLRY came in with an amyloid nucleation score of -0.426 ± 0.66.
Take IFTVCHVGSACSGNCTGQ: the amyloid nucleation score is 3.01 ± 0.06.
Consider LSLNLRYHQPVNWNSRDTCL, for which the amyloid nucleation score was found to be 1.31 ± 0.12.
For the substance SNLVGCKLIHV, the amyloid nucleation score entry is “inactive”.
As for GPTQIGNLMVTHKSQCSWFN, the amyloid nucleation score entry was “inactive”.
For the substance VTAELNFITVNGYVE, the amyloid nucleation score entry is “inactive”.
As for HNLLEETLTWCNIGRGWDD, the amyloid nucleation score result is “inactive”.
GNGIFGLSPR: the amyloid nucleation score is -1.04 ± 1.4.
For the substance SSIVEPQQLTGGPASGRFGE, the amyloid nucleation score entry was “inactive”.
With DLHVWLGVKQ the entry was “inactive”; with LLSPEEGGLKSECRRWSGAL, “inactive”.
SICTLFACHAFAGRYTTQGG showed an amyloid nucleation score of 1.04 ± 0.2.
SRVKDYCSFGLDFKCVCVFL yielded an amyloid nucleation score of 2.06 ± 0.094.
As for GFLVNSISFSKSCYEHTIVW, the amyloid nucleation score result was “inactive”.
As for LFRLYRLL, the amyloid nucleation score result is “inactive”.
With YYSFKIDRLRFVRM, the amyloid nucleation score entry is “inactive”.
In the case of LIPFCAVHPLWEHHLSKSFF, the amyloid nucleation score entry is “inactive”.
On to SITDESASPPSRWKLGRFR, for which the amyloid nucleation score result was “inactive”.
In the case of TKASKMTKQIF, the amyloid nucleation score result was “inactive”.
SWIRRRPAVRLDRRMPRLAF: the amyloid nucleation score entry was “inactive”.
The figure for GLFLRMLLRADPAKSWENRI is 0.238 ± 0.27; for RLGVVASPLHSTCIGNLLHG it is “inactive”; for TSETRPIGDA it is “inactive”.
The entry for RRGFFYIH is “inactive”; for INWCSVTDRCHKGMCLKSAG it is “inactive”; for LVVCGVRWSMFIGIS it is “inactive”.
Consider DIDTLYTTIEKCFEDIT, for which the amyloid nucleation score entry is “inactive”.
The entry for RVIGKCPHSRNCTPA is “inactive”; for KGLMVNRELMGSWSRPGCSY it is “inactive”.
With ELYSDG the entry was “inactive”.
For DIFGKRRLCI, the amyloid nucleation score result was “inactive”.
Take QVPYFYLSVFLFFSPCSINF: the amyloid nucleation score amounted to 1.74 ± 0.063.
PNFLRTCLLTYRGRSY: the amyloid nucleation score result is “inactive”.
In turn, HNFLIMWKSVVVLAVAISAK registered an amyloid nucleation score of 0.627 ± 0.18.
For the substance ISLLTVHTVSVTF, the amyloid nucleation score entry was “inactive”.
For VSIDSSFLHRSLLS, the amyloid nucleation score entry was “inactive”.
Turning to SIVSRLF, the amyloid nucleation score result was “inactive”.
Consider TCRQNFCYCLDVIVQSCLSS, for which the amyloid nucleation score entry is “inactive”.
YNMLCCRLSWRYIDRRQGRR had an amyloid nucleation score of 3.17 ± 0.072.
Turning to KFDGLYNSFTVMNFAIMVYE, the amyloid nucleation score stood at 1.65 ± 0.12.
SQFTFNCTIFNGL displayed an amyloid nucleation score of 2.65 ± 0.064.
As to DRRLPIKPHVFVYSCNSICM, the amyloid nucleation score came out at 0.921 ± 0.17.
Turning to RICMRLVNMTLMCQISGVLG, the amyloid nucleation score entry was “inactive”.
With WYRYFGCEDP, the amyloid nucleation score entry is “inactive”.
Take EMTMTWCMVVRLVWVTNGIL: the amyloid nucleation score entry is “inactive”.
Turning to MVQRSMKARILFCKVNFLCA, the amyloid nucleation score worked out at 1.16 ± 0.15.
As to SKPSYFHNFLFDKMSDRLCT, the amyloid nucleation score entry is “inactive”.
NVFLMAYRVYACKLRGTGLS: the amyloid nucleation score entry was “inactive”.
Take LNEVTVLTIMMCLRS: the amyloid nucleation score was found to be 0.971 ± 0.16.
As for VCCSVSVAWKSWAHT, the amyloid nucleation score amounted to 1.28 ± 0.13.
Consider RLQVRLSLLRWFRNYGLTIA, for which the amyloid nucleation score entry is “inactive”.
As to HYWYE, the amyloid nucleation score entry is “inactive”.
In turn, SNDCRVTVTVFSIGRDSYVL came in with an amyloid nucleation score of 2.28 ± 0.089.
Turning to ILKYCQTSLRGERPILLLDF, the amyloid nucleation score result was “inactive”.
Turning to MFVYR, the amyloid nucleation score entry is “inactive”.
With SSLLVRVRIYMGMMLLTIVR, the amyloid nucleation score entry was “inactive”.
GRGHGEGTRLASSTIVIMHV returned an amyloid nucleation score of -0.395 ± 0.61.
As to FYDHRIRSCGLVFIKECVTP, the amyloid nucleation score result was “inactive”.
On to MVLRVLNYFINFCATVLAGS, for which the amyloid nucleation score entry is “inactive”.
The entry for YKYGFAFCIIASAVSR is “inactive”; for FGLGQIRFSHIICLNLILSL it is 2.29 ± 0.056.
Take RLATHCKHNASCQQSFYRE: the amyloid nucleation score entry is “inactive”.
With LCPVGCFRCATGPFVKCDVY the entry was “inactive”; with SDEGRAIPSATPFWEYCLMW, “inactive”.
For the substance RYYDLVSLVQARDEVCTIHD, the amyloid nucleation score result was “inactive”.
For SIDIVVVWTGAIQDFRVLCL, the amyloid nucleation score was -0.594 ± 1.1.
As to CVSDLCSW, the amyloid nucleation score entry is “inactive”.
NFSTRTGIITIGFCRVCGMR had an amyloid nucleation score of 1.97 ± 0.096.
For the substance SELLPNYTKGVLTGDIYSRY, the amyloid nucleation score entry is “inactive”.
CLSMSLAKLGVIYL: the amyloid nucleation score stood at 0.724 ± 0.21.
GTIHLFYVFLLS displayed an amyloid nucleation score of 0.205 ± 0.38.
In turn, RLYSLSSRCNLNRATPPTKS displayed an amyloid nucleation score of -0.041 ± 0.75.
In turn, SVVSCMWMWHLVRYKH had an amyloid nucleation score of -0.509 ± 1.8.
With REGFVIIVLTWLMDSQYST, the amyloid nucleation score entry was “inactive”.
RKKRY: the amyloid nucleation score result is “inactive”.
Regarding VQAYLCEYR, the amyloid nucleation score entry was “inactive”.
VALWWTVMYRFFMALTFIMQ: the amyloid nucleation score entry is “inactive”.
In turn, VSIIVRYQL gave an amyloid nucleation score of 1.93 ± 0.096.
VFSNSGAETVLGLSKGWSDV returned an amyloid nucleation score of -0.542 ± 0.96.
For GHVIMGLSGYGSLASLFKTG, the amyloid nucleation score entry is “inactive”.
On to HLSRCYCYNDVSLARNFNDR, for which the amyloid nucleation score result is “inactive”.
For the substance TNRWSIFTVVLSTMNVASFV, the amyloid nucleation score is 0.974 ± 0.18.
With IFKNTVTLRN, the amyloid nucleation score entry was “inactive”.
Take WTIDTD: the amyloid nucleation score entry was “inactive”.
For the substance DIVIFVEVNHWFLMGMSHKT, the amyloid nucleation score came to 0.999 ± 0.088.
For SIVHGMA, the amyloid nucleation score entry was “inactive”.
On to SLIFQDGGDNVNDLKVCVDY, for which the amyloid nucleation score result was “inactive”.
The entry for RFNMSFYQSYITSHCLVR is “inactive”; for RTKYSQYHTGVSFDGSMHYS it is “inactive”; for WYTNPRDIRYFLVVYKKQN it is “inactive”.
On to TYLIYGGG, for which the amyloid nucleation score result was “inactive”.
Consider PDLVNISSSPYRRCGYRWVD, for which the amyloid nucleation score result is “inactive”.
For the substance QWWSLVTCQAMMN, the amyloid nucleation score result was “inactive”.
On to MVFEKGFSTNNRHGGHLDEQ, for which the amyloid nucleation score result was “inactive”.
With IKATWRSFMCVIFNLLLLP the figure was -0.184 ± 1.3.
On to NRLRV, for which the amyloid nucleation score entry is “inactive”.
Consider RNLRVIGVTRDHGNF, for which the amyloid nucleation score entry is “inactive”.
In the case of MDGGASSREVAWWSLSNRGA, the amyloid nucleation score entry is “inactive”.
As for IWNLWFRTFCT, the amyloid nucleation score amounted to 0.519 ± 0.25.
